Data set [1] deals with the molecule itself. Put plainly: native gel or EMSA; native PAGE, 10 µg protein per lane (20 µg in Figure S3), 5-20% gradient polyacrylamide gel, 25 mM Tris, 192 mM glycine, Coomassie stain; self-association, no DNA.
Data set [2] concerns the molecule itself. Put plainly: SEC; Superdex 200 5/150 GL, 20 mM potassium phosphate pH 6.0, 10 mM MgCl2, 0.15 M NaCl; masses estimated from a calibration curve; self-association, no DNA.

A word on the stoichiometry N: it is the number of molecules, sites or subunits per partner or assembly.

B1: Redβ wild-type (WT) protein from bacteriophage λ (natural protein)
chain: GSHMSTALATLAGKLAERVGMDSVDPQELITTLRQTAFKGDASDAQFIALLIVANQYGLNPWTKEIYAFPDKQNGIVPVVGVDGWSRIINENQQFDGMDFEQDNESCTCRIYRKDRNHPICVTEWMDECRREPFKTREGREITGPWQSHPKRMLRHKAMIQCARLAFGFAGIYDKDEAERIVENTAYTAERQPERDITPVNDETMQEINTLLIALDKTWDDDLLPLCSQIFRRDIRASSELTQAEAVKALGFLKQKAAEQKVAA
notes: three residues (Gly-Ser-His) left before the initial methionine after thrombin removal of the tag; Redβ, recombinase of Enterobacteria phage λ, bet gene amplified from phage λ genomic DNA, in pET14b; Forms multimers; subunit about 30 kDa; also called Redβ WT; source: E. coli BL21(DE3), purified (HisTrap FF, thrombin digestion, HisTrap FF, Benzamidine FF); not shown: His6, N-terminal, cleaved
With B1, the binding result in data set [1] is “binds”.

B2: Redβ R152A (natural protein, bacteriophage λ)
chain: GSHMSTALATLAGKLAERVGMDSVDPQELITTLRQTAFKGDASDAQFIALLIVANQYGLNPWTKEIYAFPDKQNGIVPVVGVDGWSRIINENQQFDGMDFEQDNESCTCRIYRKDRNHPICVTEWMDECRREPFKTREGREITGPWQSHPKRMLAHKAMIQCARLAFGFAGIYDKDEAERIVENTAYTAERQPERDITPVNDETMQEINTLLIALDKTWDDDLLPLCSQIFRRDIRASSELTQAEAVKALGFLKQKAAEQKVAA
notes: three residues (Gly-Ser-His) left before the initial methionine after thrombin removal of the tag; Redβ, recombinase of Enterobacteria phage λ, alanine substitution mutant; source: E. coli BL21(DE3), purified (HisTrap FF, thrombin digestion, HisTrap FF, Benzamidine FF); not shown: His6, N-terminal, cleaved
Take B2: the binding result in data set [2] is listed as “binds”.

B3: Redβ G78A (natural protein, bacteriophage λ)
chain: GSHMSTALATLAGKLAERVGMDSVDPQELITTLRQTAFKGDASDAQFIALLIVANQYGLNPWTKEIYAFPDKQNGIVPVVAVDGWSRIINENQQFDGMDFEQDNESCTCRIYRKDRNHPICVTEWMDECRREPFKTREGREITGPWQSHPKRMLRHKAMIQCARLAFGFAGIYDKDEAERIVENTAYTAERQPERDITPVNDETMQEINTLLIALDKTWDDDLLPLCSQIFRRDIRASSELTQAEAVKALGFLKQKAAEQKVAA
notes: as for B2
B3: the binding result in data set [2] was “binds”.

B4: Redβ K132A (natural protein, bacteriophage λ)
chain: GSHMSTALATLAGKLAERVGMDSVDPQELITTLRQTAFKGDASDAQFIALLIVANQYGLNPWTKEIYAFPDKQNGIVPVVGVDGWSRIINENQQFDGMDFEQDNESCTCRIYRKDRNHPICVTEWMDECRREPFATREGREITGPWQSHPKRMLRHKAMIQCARLAFGFAGIYDKDEAERIVENTAYTAERQPERDITPVNDETMQEINTLLIALDKTWDDDLLPLCSQIFRRDIRASSELTQAEAVKALGFLKQKAAEQKVAA
notes: as for B2
Take B4: the binding result in data set [2] is reported as “binds”.

B5: Redβ K69A (natural protein, bacteriophage λ)
chain: GSHMSTALATLAGKLAERVGMDSVDPQELITTLRQTAFKGDASDAQFIALLIVANQYGLNPWTKEIYAFPDAQNGIVPVVGVDGWSRIINENQQFDGMDFEQDNESCTCRIYRKDRNHPICVTEWMDECRREPFKTREGREITGPWQSHPKRMLRHKAMIQCARLAFGFAGIYDKDEAERIVENTAYTAERQPERDITPVNDETMQEINTLLIALDKTWDDDLLPLCSQIFRRDIRASSELTQAEAVKALGFLKQKAAEQKVAA
notes: as for B2
For the protein B5, in data set [2], the binding result is “binds”.

B6: Redβ K172A (natural protein, bacteriophage λ)
chain: GSHMSTALATLAGKLAERVGMDSVDPQELITTLRQTAFKGDASDAQFIALLIVANQYGLNPWTKEIYAFPDKQNGIVPVVGVDGWSRIINENQQFDGMDFEQDNESCTCRIYRKDRNHPICVTEWMDECRREPFKTREGREITGPWQSHPKRMLRHKAMIQCARLAFGFAGIYDADEAERIVENTAYTAERQPERDITPVNDETMQEINTLLIALDKTWDDDLLPLCSQIFRRDIRASSELTQAEAVKALGFLKQKAAEQKVAA
notes: as for B2
As for B6, the binding result in data set [1] is “binds”.

B7: Redβ D80A (natural protein, bacteriophage λ)
chain: GSHMSTALATLAGKLAERVGMDSVDPQELITTLRQTAFKGDASDAQFIALLIVANQYGLNPWTKEIYAFPDKQNGIVPVVGVAGWSRIINENQQFDGMDFEQDNESCTCRIYRKDRNHPICVTEWMDECRREPFKTREGREITGPWQSHPKRMLRHKAMIQCARLAFGFAGIYDKDEAERIVENTAYTAERQPERDITPVNDETMQEINTLLIALDKTWDDDLLPLCSQIFRRDIRASSELTQAEAVKALGFLKQKAAEQKVAA
notes: as for B2
As for B7, the binding result in data set [2] is reported as “binds”.

B8: Redβ R149A (natural protein, bacteriophage λ)
chain: GSHMSTALATLAGKLAERVGMDSVDPQELITTLRQTAFKGDASDAQFIALLIVANQYGLNPWTKEIYAFPDKQNGIVPVVGVDGWSRIINENQQFDGMDFEQDNESCTCRIYRKDRNHPICVTEWMDECRREPFKTREGREITGPWQSHPKAMLRHKAMIQCARLAFGFAGIYDKDEAERIVENTAYTAERQPERDITPVNDETMQEINTLLIALDKTWDDDLLPLCSQIFRRDIRASSELTQAEAVKALGFLKQKAAEQKVAA
notes: three residues (Gly-Ser-His) left before the initial methionine after thrombin removal of the tag; Redβ, recombinase of Enterobacteria phage λ, alanine substitution mutant; By gel filtration complexes of approximately 3 subunits; source: E. coli BL21(DE3), purified (HisTrap FF, thrombin digestion, HisTrap FF, Benzamidine FF); not shown: His6, N-terminal, cleaved
For B8, in data set [2], the “stoichiometry N” value is roughly 3 subunits.

B9: Redβ Y64A (natural protein, bacteriophage λ)
chain: GSHMSTALATLAGKLAERVGMDSVDPQELITTLRQTAFKGDASDAQFIALLIVANQYGLNPWTKEIAAFPDKQNGIVPVVGVDGWSRIINENQQFDGMDFEQDNESCTCRIYRKDRNHPICVTEWMDECRREPFKTREGREITGPWQSHPKRMLRHKAMIQCARLAFGFAGIYDKDEAERIVENTAYTAERQPERDITPVNDETMQEINTLLIALDKTWDDDLLPLCSQIFRRDIRASSELTQAEAVKALGFLKQKAAEQKVAA
notes: as for B2
Regarding B9, the binding result in data set [2] is given as “binds”.

B10: Redβ R161A (natural protein, bacteriophage λ)
chain: GSHMSTALATLAGKLAERVGMDSVDPQELITTLRQTAFKGDASDAQFIALLIVANQYGLNPWTKEIYAFPDKQNGIVPVVGVDGWSRIINENQQFDGMDFEQDNESCTCRIYRKDRNHPICVTEWMDECRREPFKTREGREITGPWQSHPKRMLRHKAMIQCAALAFGFAGIYDKDEAERIVENTAYTAERQPERDITPVNDETMQEINTLLIALDKTWDDDLLPLCSQIFRRDIRASSELTQAEAVKALGFLKQKAAEQKVAA
notes: as for B2
B10: the binding result in data set [1] was “binds”.

B11: Redβ V77A (natural protein, bacteriophage λ)
chain: GSHMSTALATLAGKLAERVGMDSVDPQELITTLRQTAFKGDASDAQFIALLIVANQYGLNPWTKEIYAFPDKQNGIVPVAGVDGWSRIINENQQFDGMDFEQDNESCTCRIYRKDRNHPICVTEWMDECRREPFKTREGREITGPWQSHPKRMLRHKAMIQCARLAFGFAGIYDKDEAERIVENTAYTAERQPERDITPVNDETMQEINTLLIALDKTWDDDLLPLCSQIFRRDIRASSELTQAEAVKALGFLKQKAAEQKVAA
notes: as for B2
With B11, the binding result in data set [2] was “binds”.

B12: Redβ K148A (natural protein, bacteriophage λ)
chain: GSHMSTALATLAGKLAERVGMDSVDPQELITTLRQTAFKGDASDAQFIALLIVANQYGLNPWTKEIYAFPDKQNGIVPVVGVDGWSRIINENQQFDGMDFEQDNESCTCRIYRKDRNHPICVTEWMDECRREPFKTREGREITGPWQSHPARMLRHKAMIQCARLAFGFAGIYDKDEAERIVENTAYTAERQPERDITPVNDETMQEINTLLIALDKTWDDDLLPLCSQIFRRDIRASSELTQAEAVKALGFLKQKAAEQKVAA
notes: as for B8
Take B12: the “stoichiometry N” value in data set [2] is roughly 3 subunits.

B13: Redβ V79A (natural protein, bacteriophage λ)
chain: GSHMSTALATLAGKLAERVGMDSVDPQELITTLRQTAFKGDASDAQFIALLIVANQYGLNPWTKEIYAFPDKQNGIVPVVGADGWSRIINENQQFDGMDFEQDNESCTCRIYRKDRNHPICVTEWMDECRREPFKTREGREITGPWQSHPKRMLRHKAMIQCARLAFGFAGIYDKDEAERIVENTAYTAERQPERDITPVNDETMQEINTLLIALDKTWDDDLLPLCSQIFRRDIRASSELTQAEAVKALGFLKQKAAEQKVAA
notes: as for B2
Consider B13, for which, in data set [2], the binding result is recorded as “binds”.
